This note sets out measurements from PMC4403811, “Efficient Cargo Delivery into Adult Brain Tissue Using Short Cell-Penetrating Peptides” (PLoS ONE, 2015).

Where no end group is shown, it is not given here.

In series [1] the test system is adult zebrafish brain (telencephalic hemisphere). The experiment in a line: Peptide translocation area in the telencephalon after CVMI (fluorescein IHC). The note with it: 5(6)-carboxyfluorescein-labelled peptide, fluorescein IHC at 1 dpi, n = 3, mean ± s.e.m. As to the method:
(§1) Cerebroventricular microinjections (CVMI) were executed as described in [7, 8]. Fish were anesthetized using MESAB (0.01%) and an incision placed above the optic tectum with a fine needle (Becton Dickinson Biosciences). Through this hole a glass capillary is inserted and the liquid disperses evenly throughout the cerebroventricular fluid upon high pressure injection.
(§2) Fish were sacrificed 1 day post injection and heads fixed over night at 4°C in 2% PFA. Thereafter heads were transferred to 20% Sucrose-EDTA in […] phosphate buffer, pH 7.5. For cryosectioning embedding in Sucrose(20%)-Gelatine (7.5%) on dry ice was done and heads stored at -80°C. 12 μm cryosections were cut using a cryostat microtome and stored at -20°C.
(§3) Stainings were performed as previously described in [36, 43]. Yet after the first washing step a 6 min citrate buffer treatment at 85°C was done. Primary antibodies were sheep anti-fluorescein AP (1:4000, Roche), mouse anti-PCNA (1:500, Dako Cyto) and rabbit anti L-Plastin (Lcp1, 1:7500, a kind gift from Michael Redd, University of Utah, Salt Lake City, UT, USA), they were diluted in PBS. They were incubated at 4°C overnight and secondary antibodies for 30 min at room temperature. Secondary antibodies were Alexa anti-rabbit and anti-mouse 488, 555 (1:500, Molecular probes). FastRed stainings were carried out using Fast Red TR/Naphtol AS-MX tablets (Sigma), according to manufacturer's instructions. Lastly sections were washed using PBSTx and mounted. All immunohistochemical stainings were done on at least five individuals.
(§4) Images were acquired using an inverted Zeiss AxioImager Z1. Only sections between the caudal end of the olfactory bulb and anterior commissure were counted. The quantification of the average translocation range was done using the AxioVision free hand surface area measurement tool. The area showing anti-fluorescein staining in the left hemisphere was measured against the total this telencephalic hemisphere, based on color thresholds against control images. The statistical evaluation was performed using GraphPad Prism (Version 6.02) for one-way ANOVA followed by a Tukey’s post-hoc test and for Student’s T-Test. Error bars shown are the s.e.m. and asterisks indicate significance according to: *: p0.05, **: p0.01, ***: p0.001. p>0.05 is considered not significant.

Series [2] has as its system adult zebrafish brain (telencephalic hemispheres). The experiment in a line: Relative fluorescence levels in the telencephalic hemispheres after CVMI (surface plots). Conditions: CVMI 100 μM; for relative fluorescence levels in the telencephalic hemispheres (level of peptide translocated to deep tissues): Fast-Red staining of cryosections, compared to control PolyD. Here is the method:
as §1, §2, §3
(§5) Images were acquired using an inverted Zeiss AxioImager Z1. Only sections between the caudal end of the olfactory bulb and anterior commissure were counted. The quantification of the average translocation range was done using the AxioVision free hand surface area measurement tool. The area showing anti-fluorescein staining in the left hemisphere was measured against the total this telencephalic hemisphere, based on color thresholds against control images. […]

Series [3] relates to adult zebrafish brain (telencephalon). Conditions: for number of TUNEL-positive (apoptotic) cells: CVMI 200 μM, 1 dpi, per telencephalic hemisphere per section, n = 3. Here is the method:
as §1, §2
TUNEL stainings of sections were carried out using the ApoTag Red In Situ apoptosis Detection Kit (Chemicon International). Stainings were performed according to manufacturer’s instructions and positive and negative controls were included.
as §4

For series [4] the test system is unchanged. The experiment in a line: L-Plastin immunohistochemistry for immune response (leukocytes/microglia) after peptide CVMI. Conditions: for number of L-Plastin-positive cells per hemisphere per section: dose not printed in the block (heading: high doses), PBS-injected control 35 ±6, n = 3, mean ± s.e.m. Here is the method:
as §1, §2, §3, §4

Series [5] concerns adult zebrafish brain (ventricular progenitor cells). The note with it: CVMI 200 μM, PCNA IHC, n = 3, mean ± s.e.m. Here is the method:
as §1, §2
Stainings were performed as previously described in [36, 43]. Yet after the first washing step a 6 min citrate buffer treatment at 85°C was done. […]
as §5

Where [6] appears, read: injection concentration 100 μM, stained area vs total hemisphere.
Setting [7] is: CVMI at 100 μM, 150 μM and 200 μM (all doses tested), n = 4.

For the substance “DDDDDDDDD ({5(6)‑carboxyfluorescein}-DDDDDDDDD) [PolyD, Poly-Aspartic Acid]”, the “average area of peptide translocation in one telencephalic hemisphere” value (“average area of peptide translocation” for short) in series [1] (setting [6]) is reported as “did not show any penetration”. Moreover, the “relative fluorescence levels in the telencephalic hemispheres (level of peptide translocated to deep tissues)” value in series [2] was “no translocation”. Besides, the “number of TUNEL-positive (apoptotic) cells” value in series [3] is reported as “did not result in any increase in the number of apoptotic cells”. In addition, the “number of L-Plastin-positive cells per hemisphere per section” value in series [4] (CVMI) is recorded as “do not alter the number of leukocytes/microglia”.

Turning to “RPARPAR ({5(6)‑carboxyfluorescein}-RPARPAR) [CendRP]”, the “average area of peptide translocation” value in series [1] (setting [6]) is “did not show any penetration”.

For RKKRRQRRR [Tat], the results for the “average area of peptide translocation” value in series [1] (setting [6]) and in series [1] (injection concentration 200 μM) were 27 ±13% and 63 ± 11%, respectively.

RRRRRRRRR [PolyR, Poly-Arginine]: the “average area of peptide translocation” value in series [1] (setting [6]) came out at 70 ± 4%; in series [1] (injection concentration 200 μM), 70 ± 5%. Also, in series [2], the “relative fluorescence levels in the telencephalic hemispheres (level of peptide translocated to deep tissues)” value is on record as “significantly elevated levels of penetration”. Also, the “effectiveness of penetration relative to Trans (relative fluorescence)” value in series [2] (PolyR versus Trans) stood at 3 fold. In addition, in series [3], the “number of TUNEL-positive (apoptotic) cells” value was “unchanged levels of TUNEL-positive cells”. Moreover, in series [3] (setting [7]), the “cell death response (TUNEL-positive cells) compared to PolyD control” value is listed as “did not elicit any cell death response”. In addition, in series [3] (CVMI, doses tested 100, 150, 200 μM, TUNEL), the “maximum concentration usable without any cell death response” value is given as “not toxic at such concentrations”. In series [4] (setting [7]), the “immune response (L-Plastin-positive cells) compared to PolyD control” value was “did not elicit any immune response”. Moreover, the “number of L-Plastin-positive cells per hemisphere per section” value in series [4] (CVMI) is reported as “do not alter the number of leukocytes/microglia”. For the same substance, the “maximum concentration usable without activating the immune system” value in series [4] (CVMI, doses tested 100, 150, 200 μM, L-Plastin IHC) is given as “not causing an immune reaction at tested concentrations”. In series [5], the “ventricularly proliferating progenitor cells (PCNA+ cells per telencephalic hemisphere section)” value is “not altered”.
